± gives the uncertainty stated by the source.
Experiment: amyloid nucleation score (Sup35N fusion, yeast selection) (log enrichment); library NNK2; higher = more nucleation; inactive = no reads after selection
Procedure, shortened: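 Libraries of peptides of 20 random codons fused to Sup35N were expressed in psi-negative yeast and induced 24 hours with 100 μM copper sulfate. Selection was 7 days at 30°C on medium lacking adenine and uracil, and plasmid inserts were Illumina-sequenced before and after selection. Nucleation score is the DiMSum log enrichment of output over input reads, centred on the mode score of non-aggregating sequences, and sequences with under 100 input reads were left out.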

| Substance | amyloid nucleation score |
| --- | --- |
| VRANLGAGFRFKSETGDAS | 0.861 ± 0.14 |
| VRFKYIYHTGLDDVAVNQY | -0.487 ± 0.55 |
| VRFNGLVR | inactive |
| VRITVSSSLALWLVWLSHYR | -0.167 ± 0.27 |
| VRKGHPYALELLSCYVGCQP | 1.18 ± 0.25 |
| VRKSHS | 0.308 ± 0.42 |
| VRLLMKLYNVPWVFH | inactive |
| VRLRGYSR | -0.439 ± 0.39 |
| VRMSLTLSFQVLAYWEGFIK | -0.64 ± 0.49 |
| VRRYYDSKSSIAYMLSIRVD | -0.447 ± 0.27 |
| VRSGTLFARTKWEESSCHLF | 0.641 ± 0.4 |
| VRSVGGTLASPWRAYGC | 0.527 ± 0.57 |
| VRSYNVKYCSRRNLICGDG | -0.019 ± 0.41 |
| VRTPEYSLHLVAS | -0.02 ± 0.61 |
| VRWFCSVISF | 2.39 ± 0.14 |
| VRWMITHNFRVF | inactive |
| VRWTRFQALLYLK | inactive |
| VSASEEVPAFCCVTVAQ | -0.195 ± 0.61 |
| VSEMPLLYR | 0.769 ± 0.53 |
| VSEWFGTKGWRLDYLCLYWL | -1.03 ± 0.64 |
| VSFATRRSSNNILTGW | -0.557 ± 1.1 |
| VSFKTSGKLCTAWFVWGLF | -0.108 ± 0.34 |
| VSFSSNHGFAMVRLSWSQKR | 5.49 ± 0.058 |
| VSGCV | -0.865 ± 0.54 |
| VSGDRLPSLFTCVRLLI | 0.492 ± 0.41 |

| Substance | amyloid nucleation score |
| --- | --- |
| VSIYLG | 2.72 ± 0.15 |
| VSKSFWGMGWSLRYSGFSRV | -0.262 ± 0.41 |
| VSLKFLQGGAKDLRWSCGGE | 1.78 ± 0.23 |
| VSLRYRKRQWCYRVKWSITD | -1.36 ± 0.48 |
| VSMAIFGSSNILYSIRSLLE | 4.37 ± 0.082 |
| VSMEKVRSDGMDRFASGFAA | 0.361 ± 0.29 |
| VSMRMVHGDYKWGRGCLIWI | -0.196 ± 0.45 |
| VSNCLQGLYFCWSTGSRSRI | 6.796 ± 0.03 |
| VSNPSGVREPATTGGQSLAI | 0.966 ± 0.47 |
| VSRAFNFSRCRRKISPALQC | 0.135 ± 0.33 |
| VSRDIIKKVSASNRSMVSDS | 0.163 ± 0.56 |
| VSRKV | 0.476 ± 0.23 |
| VSRSSRWYNRIGMVRSVWNK | -0.139 ± 0.21 |
| VSSLMMVGNRFLIISWTESV | 2.55 ± 0.092 |
| VSTKVGSSYEVVGYKVSHFG | -0.291 ± 0.76 |
| VSVGWRVAVWWILKWEHLSR | 9.541 ± 0.034 |
| VSVHAVGLSYCMICFSLQNG | -0.611 ± 0.23 |
| VSYDSNAILTFVNSYSRRRL | 1.48 ± 0.19 |
| VSYDVNIFWYPKKMS | inactive |
| VSYTHTETTPGLTSLWLVLM | 6.89 ± 0.077 |
| VSYVDESHFVNTKSDMPSVS | -0.392 ± 0.63 |
| VTCNPHGLSHD | inactive |
| VTDCMSVRITLLMCSHGFKH | 7.302 ± 0.063 |
| VTGRAFNVTHGDAVEI | 0.299 ± 0.39 |
| VTIER | 0.319 ± 0.33 |

| Substance | amyloid nucleation score |
| --- | --- |
| VTIGLNDFLTWDRWFYVFYG | -0.873 ± 0.25 |
| VTIYRGVRFGTFLPCRVRYG | 1.48 ± 0.26 |
| VTKHLGEARKLVLDQRLHWG | 5.601 ± 0.047 |
| VTKSRRFSFLYYVESLHNRC | 4.25 ± 0.048 |
| VTLGVWRPAFFAFWTPRKQY | -0.35 ± 1.1 |
| VTLNTVDFPTGICKSSGARW | -0.236 ± 0.42 |
| VTLSGYRVPLTLWDFGRCLC | -0.565 ± 0.35 |
| VTQRWLAFERWKLPCSLPSH | 0.02 ± 0.79 |
| VTRSVSPHSSPYAFYYFNIS | inactive |
| VTVTFIAEHSIWPSVNNCFV | 1.71 ± 0.15 |
| VTVTYLWIC | 1.88 ± 0.28 |
| VVAKAGRSKFSGCSRATAGG | 0.609 ± 0.41 |
| VVAMDRCLQPVFLHLLSNNF | inactive |
| VVAPTKLLFKLPMALYVFVG | -0.299 ± 0.34 |
| VVKRARLSWPFIARKYTSMV | 0.116 ± 0.4 |
| VVLTAVHFQCLLTLTVPIEV | -0.158 ± 0.48 |
| VVQFSNGDLLILTGCPNTSK | 0.449 ± 0.8 |
| VVRKRSKMKLRRIHFSWLVW | 0.744 ± 0.26 |
| VVSSSTSFTAGTRVM | inactive |
| VVTLDRGLGHNRKGIQLGFR | 0.547 ± 0.81 |
| VVVNNGTGKVPFDDM | -0.952 ± 0.42 |
| VVYSSRLRSDA | 1.12 ± 0.4 |
| VVYVVHFYFEYVGNVVARAK | inactive |
| VWCAYWKWLNLSRFNEITAR | -0.202 ± 0.23 |
| VWGWD | -0.517 ± 0.78 |

| Substance | amyloid nucleation score |
| --- | --- |
| VWIAKKGQRSRFQLRSGMCA | 0.641 ± 0.74 |
| VWQSYRFEEYFCICFQLASA | 7.923 ± 0.031 |
| VWRPRTFLLIHYVVKDKRTP | -0.507 ± 0.79 |
| VWRTGRGYGRMWFLHISSMY | -0.207 ± 0.34 |
| VWSPYKTV | -0.101 ± 1.1 |
| VWYFIDFGPRKISVITWRYS | -0.642 ± 0.78 |
| VWYYGSRKCHAVYLRNRMSV | -0.192 ± 0.41 |
| VYAVDTTW | 0.237 ± 0.29 |
| VYFDNGISK | -1.6 ± 1.1 |
| VYGYDKISHFVHSMNSNIVW | inactive |
| VYIVHVPSQFWL | 6.37 ± 0.08 |
| VYMCFSPVVNIMTVISFLAR | 5.23 ± 0.093 |
| VYMGEELVLVISVKDR | inactive |
| VYMSQWSKVFALFALNFKVN | 1.84 ± 0.2 |
| VYNLN | -0.181 ± 0.41 |
| VYTLIIDW | -1.44 ± 0.78 |
| VYWTKWGFLLVSSVKVLSLE | -0.14 ± 1 |
| VYYAGSK | -0.562 ± 1.1 |
| WAGRDHFWNIIYLDLSFVGE | 3.77 ± 0.12 |
| WAKSFHTALWASLMRGRKLH | -0.44 ± 0.54 |
| WASFW | -0.725 ± 0.45 |
| WCCLYDYFVDTGVLFIQDGS | -0.186 ± 0.2 |
| WCGYCLTFLFPAQKQEAVLR | 0.218 ± 0.35 |
| WCKLDWLIWGIEQRP | 0.063 ± 1.1 |
| WCLLAIFSYCNDPLVLIARR | 2.26 ± 0.12 |

| Substance | amyloid nucleation score |
| --- | --- |
| WCNALFDWMLVAVCGGYYVY | -0.502 ± 0.37 |
| WCSKKPDEFLTINAFRYWED | -0.736 ± 0.34 |
| WCSSKSLADSGRVMGANVYI | -1.02 ± 0.78 |
| WDHLFASFFFLPLMLYGRYY | inactive |
| WDLLHYFDLF | 0.232 ± 0.56 |
| WEIYIGTLTIKWLFTMDRLV | -0.133 ± 0.23 |
| WERMFRPHIFVLFSSGQLSS | 5.01 ± 0.052 |
| WFACYMRIAGTGQEVMYVTM | 0.424 ± 0.24 |
| WFCVRVA | -0.13 ± 0.37 |
| WFFKTAMWVITT | 0.081 ± 1.1 |
| WFMEILFVV | -0.383 ± 0.26 |
| WFMFCNLGLGTPIGMITLRS | -1.16 ± 0.56 |
| WFRRQSLGWVRANGPVMRIS | 0.035 ± 0.34 |
| WFRYNCHDFSLTNPWRHHNL | 0.507 ± 0.52 |
| WGADSYYMCTKLLGSDCGSN | 0.453 ± 0.66 |
| WGCQLRSMQTMTRHR | 0.949 ± 0.74 |
| WGEVRLCESMVCCLGRIQGR | 4.1 ± 0.063 |
| WGWKYMLEELN | -0.177 ± 0.55 |
| WHFSLTMFRSERVNVLTASD | 1.04 ± 0.27 |
| WHNYSYSRGIRRCHQMKHKR | 1.46 ± 0.15 |
| WHQVRPARV | 1.17 ± 0.3 |
| WHTYSRCSFRKRAGSLVAFP | 0.365 ± 0.28 |
| WIMSVGTAKWRDGQPSACRK | 3.46 ± 0.13 |
| WKALAS | 1.74 ± 0.11 |
| WKFSYDFSASASGHHALVNK | 3.22 ± 0.13 |

| Substance | amyloid nucleation score |
| --- | --- |
| WKHMSRR | 0.639 ± 0.66 |
| WKQEYFG | -0.508 ± 0.63 |
| WLGYEEGG | 0.508 ± 0.62 |
| WLNHYAQLIHRARGHVWNMY | -0.685 ± 0.63 |
| WLNLARDWKWKSDINFWKVH | inactive |
| WLNVDYSYSALRLHNCNGLM | 1.64 ± 0.085 |
| WLPLYMFQDQYLLKAPWISS | inactive |
| WLPMYL | 0.194 ± 0.26 |
| WLWNNG | 0.485 ± 0.74 |
| WMLIWYGPRLVYIPDLITLP | inactive |
| WMLWANIDPGDAPYREASAG | 4.06 ± 0.05 |
| WNAHN | -0.081 ± 1.1 |
| WNSIYGLAEMQVCWWFGWGC | -0.628 ± 0.41 |
| WNTIYMSTFVIRDFAIYIKY | 7.53 ± 0.058 |
| WNVMHI | 0.358 ± 0.64 |
| WNYITVDISQLNLPGVAMGW | 3.45 ± 0.097 |
| WNYSNRNDYELFRTLK | 0.316 ± 0.57 |
| WPFPKSRNRS | -0.076 ± 0.79 |
| WPSLVLGYDMLGVI | -0.025 ± 1.1 |
| WQSAEEWMLPYGVNMVVSWA | 0.483 ± 0.46 |
| WRDGSYLFPDVPERPSRNSG | inactive |
| WRDSVDTGISSGKVGGRCSE | -0.047 ± 0.27 |
| WRLSLGYPVSALQMRMPGTL | 2.1 ± 0.22 |
| WRMGTPNIRMLC | -0.318 ± 0.38 |
| WRRTTYYGRDRGQVLGNNAG | -0.009 ± 0.36 |

| Substance | amyloid nucleation score |
| --- | --- |
| WRSGGQPCVSGSWSVTNLCV | 3.1 ± 0.092 |
| WRVLFQDFRCKINYLGSSSR | inactive |
| WSANVPQWLLTRPYFDSHHN | inactive |
| WSEYRFRHIPKLKKCYQVD | 0.175 ± 0.32 |
| WSHGHIFIRD | inactive |
| WSIVGLGSRCWREVASCSTV | 0.636 ± 0.49 |
| WSKEFEIGSNHSKSNTRCGR | 0.244 ± 0.46 |
| WSKQKVAT | 0.814 ± 0.21 |
| WSMSVLVSPHVMFKNAMEVL | 0.22 ± 0.28 |
| WSMVTVLRGDRG | 0.525 ± 0.54 |
| WSNPTKLFHELAVQLNYTMP | 0.903 ± 0.74 |
| WSPLSLVTIELLVQSVIDPF | -0.351 ± 0.48 |
| WSRFSCRT | 1.24 ± 0.2 |
| WSTAFSKLNSSRKSD | -0.582 ± 0.76 |
| WSTASSVLIICIQRFF | inactive |
| WSWGGHAVMFY | -0.424 ± 1.1 |
| WTDSHSKMRNFRPG | -0.259 ± 0.49 |
| WTGGFSLQSVHCNQN | -0.393 ± 1.1 |
| WTLYKTMIMVSSVPFIIKIC | -1.2 ± 0.76 |
| WTNFVGLSALFSMWV | -1.54 ± 1.1 |
| WTRAVKPPV | -0.113 ± 0.34 |
